Measured values reported in the nanobody polyreactivity screen of Harvey et al. (2022).

Test: yeast display, Sf9 membrane polyspecificity reagent, FACS + sequencing; frameworks hold sequencing errors
How it was run: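 Genes from sorted yeast were amplified by colony PCR, read by MiSeq 2 × 250 sequencing and filtered on CDR length. These cells carried a synthetic nanobody library in Saccharomyces cerevisiae BJ5465 and were sorted by FACS into low and high (top ~1%) gates on anti-HA and streptavidin fluorescence. Polyreactivity is labelled according to the gate of origin.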

Sequence | polyreactivity (PSR sort gate)
QVQLVESGGGLVQAGGRLRLSCAASGSTFKRYVMRLYRQAPGKERELVAAITWSGTRTYYADSVKGRFTISRDNAKNTVYLQMNSLKPEDTAVYYSAAVADRYPYSGYNYYSWGQGTQVTVSS | high polyreactivity
QVQLVESGGGLVQAGGRLRLSCAASGSTFRYYALGWYRQAPGKERELVAVISSTGSRTNYADSVKGRFTISRDNAKNTVYLQMNSLKPEHTAVYYCAADTTRRAPGYYYWGQGTQETVSS | high polyreactivity
QVQLVESGGGLVQAGGRLRLSCAASGSTFTHYAMGWYRQAPGKERELVAAISSGGSTYYADSVKGRFTISRDNAKNTVYLQMNSLKPEDTAVYYCAADYDWHDWWYPHDYWGQGTQVTVSS | low polyreactivity
QVQLVESGGGLVQAGGRLRLSCAASGSTFWLNAMGWSRQATGKERELFADSSRSGGSTYYADSVKGRFTISRDNAKNTVYLQMNSLKPEDTAVYYCAADSWPDQFTVYPGGDYWGQGTQVTVSS | low polyreactivity
QVQLVESGGGLVQAGGRLRLSCAASGSTFWYYAMGWYRQAPGKEREFVAGISTSGVSTYYADSVKGRFTISRDNAKNTVYLQMNSLKPEDTAVYYCAADYIFRRAGWYLMDYWGQGTQVTVSS | high polyreactivity
QVQLVESGGGLVQAGGRLRLSCAASGSTFYWNTMGWYIQAPGKERELVAAISRRGGSTYYADSEKGRFTISRDNAKNTVYLQMNSLKPEETAVYYCNKLLSQRRYHSEMDYWGQGTQVTVSS | high polyreactivity
QVQLVESGGGLVQAGGRLRLSCAASGSTIPRYAMGWSRQAPGKERELVAAITNGGSTNYADSVKGRFTISRDNAKNTVYLQMNSLKPEDTAVYYCAKRFGYRFYYGGQGTQVTVSS | high polyreactivity
QVQLVESGGGLVQAGGRLRLSCAASGTIFGPYAMGWYRQAPGKEREFVAAISRSGTRTNYADSVKGRFTISRDNAKNTVYLQMNSLKPEDTAVYYCAAGYYGPDPRNRYRYNYWGQGTQVTVSS | high polyreactivity
QVQLVESGGGLVQAGGRLRLSCAASGYIFSRYAMGWYRQAPGKERELVAAISKSGSSTYYADSVKGRFTISRDNAKNTVYLQMNSLKPEDTAVYYCATSYSVGYDYWGQGTQVTVSS | high polyreactivity
QVQLVESGGGLVQAGGRLRLSCAASGYTFVVNAMGWYRQAPGKERELVAAITGGDSTNYADSVKGRFTISRDNATNTVYLQMNSLKPEDTAVYYCAKRDVLPFQTVTGSRNDYWGQGTQVTVSS | low polyreactivity
QVQLVESGGGLVQAGGRLRLSCAASVRIFRVYAMGWYRQEPGKERELVAAISWSGGRTYYADSVKGRFTISRDNAKNTVYLQMNSLKPEHTAVYYCAAVSGYALGYDYWGQGTQVTVSS | high polyreactivity
QVQLVESGGGLVQAGGRLRLSCAASVSIFNPYTMGWYRQAPGKERELVAAISYRGGSTYYADSVKGRFTISRDNAKNTVYLQMNSLKREDTAVYYCAAQVRYLGYRYDYWGQGTQVTVSS | high polyreactivity
QVQLVESGGGLVQAGGRLRLSCADSGRTFYYYAMGWYRQAPGKERELVAAIRWRATSTFYADSVKGRFTISRDNAKNTVYLQMNSLKPEDTAVYYCATTGGYRLQAQKYYYWGQGTQVTLSS | high polyreactivity
QVQLVESGGGLVQAGGRLRLSCAPSGRIFVYNAMGWYRQAPGKERELVAAINSGDSTYYADSVKGRFTISRDNAKKTVYLQMNSLKPEDTAVYYCARDGWAFSIYYDLDYWGQGTQVTVSA | low polyreactivity
QVQLVESGGGLVQAGGRLRLSCASSGIIFRYNAMGWYRQAPGKERELVAAISSSGTTNYADSVKGRFTISRDNAKNTVYLQMNSLKPEDTAVYYCAARRSYARRFKNSMEYWGQGTQVTVSS | high polyreactivity
QVQLVESGGGLVQAGGRLRLSCATSGYIFYDYDMGWYRQAPGKERELVAAIRRSTGTTYYADSVKGRFTISRDNEKNTVYLLMISLKPESTAVYYCAALFRPRVHRYDYWGQGTQVTVSS | low polyreactivity
QVQLVESGGGLVQAGGRLRLSCSASGLTVYRKAMGWSRQAPGKEREMVAAITSSGGRTYYADSVKGRFTISRDNAKNTVYLLMNSLKAEDTALYYCAADFCLGYYYWGQGTQVTVSS | high polyreactivity
QVQLVESGGGLVQAGGRLRLTCAASGFTFGRYAMGWYRQAPGKERDLVADITSGSGGTYYADSVKGRFTISRATAKNSVYLQMNSLKPEDTAVYYCATGSRSRGALRYAHFDFWGQGTQVSVSS | high polyreactivity
QVQLVESGGGLVQAGGRLRLTCAASGSIFLEYTMGWSRQAPGKEREVVASISWGGGSTYYADSVKGRFTISRDNAKNTVYLQMNSLKPEDTAVYYCAAVTKLSGIRYNYWGQGTQVTVSS | low polyreactivity
QVQLVESGGGLVQAGGRLRLTCAASGSIFPTYDLGWYRQAPGKERELVAAIRGDGSTNYADSVKGRFTISRDNAKNTVYVQMNSLKPEDTAVSYCAAVSSEYVFRYGGYWGQGTQVTVSS | low polyreactivity
QVQLVESGGGLVQAGGRLSLSCAASGSTFAYYAMGWYRQAPGKERELVAGITWTGGSTYYADSVKGRFTNSRDNAKNTVYLQMNSLKPEDTAVYYCAVTYPYGYEYDHWGQGTQVTVSS | low polyreactivity
QVQLVESGGGLVQAGGSGRLSCAASGITCAYYAMGWYRQAAGKERELVAVITSGGRPNYADSVKGRVTISRDNAKNTVYLQMNSLKPEDTAVYYCAAYRSSKTLRRGYYYWGQGTQVTGSS | high polyreactivity

Sequence | polyreactivity (PSR sort gate)
QVQLVESGGGLVQAGGSHRISCAASGLTFFRNAMGWYRQAPGKERELVATITSTSSTNYADSVKGRFTISRDNAKNKVYLQMYSVKPEDTAVYYCNARVYYKYVGRMYYWGQGTQVTVSS | high polyreactivity
QVQLVESGGGLVQAGGSHRISCAASGRTFARYVMGWYRQAPGKERELVAAISRSGGTYYADSVKGRFTISRDNAKNTVYLQMNSLKPEDTAVYYCRIPSHGGVYWGQGTQVTVSS | high polyreactivity
QVQLVESGGGLVQAGGSHRLRCAASGLIIGDYGMGWYRQAPGKERELVAAITDRGGTTYYADSVKGRFTISRDNAKNTVYFQMNSLKPEDTAVYYCIARQSDIFDYDYWGQGSQVTVSS | low polyreactivity
QVQLVESGGGLVQAGGSHRLSCAASGFIFSYYAKGRYRQAPGKERELVAAISSSGGTTYADSVKGRFTISRDNAKNTVYLHMNSLKPEDTAVYYCARVQYWFYKPMYYWGQGTQVTVSS | high polyreactivity
QVQLVESGGGLVQAGGSHRLSCAASGFIFSYYAMGWYRQAPGKERELVAAITDSGGSTYYADSVKGRFTISRDNAKNTVYLQMNSLKPEDTAVYYCAATYWWAYVWAYSHVKSTNDYWGQGTQVTVSS | low polyreactivity
QVQLVESGGGLVQAGGSHRLSCAASGFTFYRYAMGSYRQAPGKERELVAAITGGGSTYYADSVKGRFTISRDNAKNTVYLQMNSLKPVDTAVYYCNAYHIVIYDYWGQGTQVTVSS | low polyreactivity
QVQLVESGGGLVQAGGSHRLSCAASGFTINFYSMGWYRQAPGKERELVAAITASGGGSTYYADSVKGRFTISRDNAKNTVYLQMNSLKPEDTAVYYCNADYTGSFYTYDYWGQGTQVTVSS | low polyreactivity
QVQLVESGGGLVQAGGSHRLSCAASGGTFDDYALGWYRQAPGKERELVAAISSSGGSTYYADSVKGRFTISRDNAKNTVYLQMNSLKPEDTAVYYCAVDAYWRLWYYPYESHHDYWGQGTQVTVSS | low polyreactivity
QVQLVESGGGLVQAGGSHRLSCAASGITFNVYAMGWYRQATGKERELVAAISYNGGRTYYADSVKGRFTISRDNAKNTVYLQMNSLKPEDTAVYYCNTVSLSLRYDYWGQGTQVTVSS | high polyreactivity
QVQLVESGGGLVQAGGSHRLSCAASGLTFDHYAMGWYRQAPGKERELVAAISRTGTRTYYADSVKERFTISRDNAKNTVYLQMNSLKPEDTAVYYCNAGTYWQGDSYDYWGQGTQVTVSS | low polyreactivity
QVQLVESGGGLVQAGGSHRLSCAASGRIFVYYPRGWYRQAPGIETELVAAINAGRSTNYADSVKGRFTNSRDNAKNNVYLQMNSLKLQDTAVYFCAAVRRSRYSYRGYYWGQGTQVTVSS | high polyreactivity
QVQLVESGGGLVQAGGSHRLSCAASGRIIGYNPMGWYRQAPGKERELVASIRYSGGSTYYADSVKGRFTISRDNAKNPVYLQMNSLKPEDTAVYYCATRVTYRRRFDYWGQGTQVTVSS | high polyreactivity
QVQLVESGGGLVQAGGSHRLSCAASGRIYGDYAMGWYRQAPGKERELVAAINSSGTSTIYADSVKGRFTISRDNAKNTVYLQLNCLKPEDTAVYYCADLFTFKYDYWGQGTQVTVSS | low polyreactivity
QVQLVESGGGLVQAGGSHRLSCAASGRLFSWNAMGWYRQAPGTERELVAAITNGGGTYYADSVKGRFTISRDNAKNTVYLQMNSLKPEDTAVYYCNAYRRKLWYPTGLYWGQGTQVTVSS | high polyreactivity
QVQLVESGGGLVQAGGSHRLSCAASGRTFEYNAMGWYRQAPGKERELVATITRASTNYADSVKGRFTISRDNAKNTVYLQMNSLKPEDTAVYYCNARARGRRYPYSKYYYWGQGTQVTVSS | high polyreactivity
QVQLVESGGGLVQAGGSHRLSCAASGRTFEYNGKGWYRQAPGKERELVAAITRGGSTYYADSVKGRFTISRDNAKNTVYLQMNSLKPEDTAVYYCAAEVGWSRYKWLEYWGQGTQVTVSS | low polyreactivity
QVQLVESGGGLVQAGGSHRLSCAASGRTFPGNAMGWYRQAPGKERDLVAAITSSGDTDYADSVKGRFKISRDNAKNTVDLQMNSLKTEDRAVYYCAKGYSYGRPWDIYYYWGHGTQVTVSS | low polyreactivity
QVQLVESGGGLVQAGGSHRLSCAASGRTFPGNAMGWYRQAPGKERELVAAISWSGTRTYYADSVKGRFTISRDNAKNTVYLQMNSLKPEDTAVYYCNVVVKGAWDYYPYDYWGQGTQVTVSS | high polyreactivity
QVQLVESGGGLVQAGGSHRLSCAASGSIFIRYAMGWYRQAPAKERELVASITSGGSTYYADSVKGRFTISRDNEKNTVYLQMNSLKPEDTSVYYCNALPYRYRRYDYWGQGTQVTVSS | low polyreactivity
QVQLVESGGGLVQAGGSHRLSCAASGSIFYPYPMGLYRQAPGKERELVAAITTRDDSTRYADSVKGRFTISRDNAKNTGYLQMNTLKPEDTAVYYCNTDYGPVFGQYYWYELDYWGQGTQVNVSS | low polyreactivity
QVQLVESGGGLVQAGGSHRLSCAASGSTFAGNAMGWYRQAPGKERELVAAISGSGGITYYADSVKGRFTISRDNAKNTVYLQMNSLKPEDTAVYYCNAYYWFSRYGYWGQGTQVTVSS | high polyreactivity
